Measured values published in a protein production outcome set (Wang et al. 2014).

Assay: label from the status in PepcDB records
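Further: failed if final PepcDB status was selected cloned or expressed and not failed if soluble or beyond.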

Question: For “MRRPAVTAGPAHVLQRPVKPDLSAILHCVQNCTGCRTVRQARPQRGDQIRVTFLCILSSVFPNDQTDHLRSVRPSGFRYRPRHLNSGLAPLPGTLLEEVSMRNPVLTVTPLALTLILSAAGAQSLQAAQSLYDQGKWQEAATAAAALKTSDGYALAAEATTNGAGLVADSQKKALFAKAQDYAKQAIAADKNNPEAYFELARAQGRLAQFSGILQSLGMAKDMKQNLDTAIKLKPNMASAYVALGLWNANLDSKGAIARSATGASKAQVVPNFEKAIALEANTPIHRVEYANALLLQGNKAGARAQLEKAAGMGADNFWEKRDVATAQAMLAKLK”, which protein production is on record?
Answer: The protein production was “failed”.

Question: Which protein production does the source give for “MIEKILLAVSGLGHAEEMLKTLKEVPSIQSAKVTVLHVVPSQATSSAMTDKWEEGGKILANAIQALNLDPSQVSSILRQGDPKDVVCQVADEIDADLIIMGSRGLKRLQSILSNSVSQYVFQLSSRPMLLVKDDIYVKRIKRVMVAMDNSDAAKHCLNLALFLLRGIVGSQLILANVTTDLRGKTSEVSEISPDKNPVLASAVAEAQRYGIQTRCFTSSGKPGEEICRLADELNVDLLLLGSPDRRPSVAKNFVDIDRLIGASLSDYVRVNASCPVLLARTTG” here?
Answer: The protein production was “failed”.

Question: Which protein production does the source give for “MALKLGLTEAVSLGITHISIYCDHFQIFELVMWRSVPDKDSIAMIMYDVQRIRQQLTSSTPLLVTGNQTNKLAYELALETLVSEISISIEEKALTCDKN” here?
Answer: The protein production was “failed”.

Question: Which protein production does the source give for “MGNNFAQLKRLINFFRTVILPARISQLILQTFLKWQKDNCMDMGAALAYYALFSLFPICLVMLSIAGRLLGADSNYYLQLISFAQNILPEQPFKVFQQALTNLNQSSFSAGLIGFGILVLTASRIFDALNQSVKKIWSVVHQPKENIGVKHHAFNFIRNKILAFLLVLSTVMVFLLSIFANLAAKIFLTVLAEFGQSIPWVTFDSLGLITTLQTSISYFLITVVIITLFKVLPPVRLQWWDIFPGAILTAATMMALQNAVGSGIIRIGENLQAYGVVGNVMVLLLWIYLIFQVFFIGCEFTFVFTYIFGSRHQKEKPF” here?
Answer: Its protein production is “failed”.

Question: Which protein production does the source give for “MSALSSEGFFLEKCTHFFSDKKVVFFIATLCCLLWGSAYPAIKNGYELFHIADDDIPGKLVFAGYRFAFAGLLLALAVLSGRSIGRFQRGQLAQLTILGTFQTSLQYVFFYIGLAYTTGVKGSIMNATSTFFSVLLAHYLYQNDKLNINKIIGCILGFAGVMAVNINSNGMNIGFTLLGDGFVVIAAFILSASTIYGKRISQTMDPTVMTGYQLAIGGIILTISGYCTGGSLIIPDWRAVLMLGYLILLSSAAFSLWSQLLKYNRVGMVAPFNFLIPVSGTLLSALFLNESILEWKYFFALILVCSGIWLVNRVVKTRSGK” here?
Answer: The protein production was “failed”.

Question: Which protein production does the source give for “MSSSTALAPSTAPNIIQGGMGIGVSSWRLARHVARRGEIGIVSGTGIDSVVVRELQEGDPHDRRQMLADYPDEEIADHLVERFYRPDGLPADEPYDLLNMHPFEPSVRSQRILAAATYTEVRLAAAGHEGMIGMNLLAKLKRYTLPCIYGALLSDIDIVSIGAGIPLEEARQIPKLAAGEPAALRLDVDTSQAPDADDSYAYRFDPADVLDAPPTLDRPLFLPIISSDALARIMDAKLPDRRVDGWVVEGPVAGGHNAPPRNKNYADDGTPLYDERDEADLEAIRSLGKPFYLAGGHGSPEGLRAAHEAGAAGIQVGSLFSLTDESGYPPSTTRRLIRGLHTGEIEVSTEGRVSSTGFPFKVLTADGTLADAEVYERRARICDLGYLREPYLDEEGRLMGRCPAEPVKTYVSRGGAPEETEGRACLCNALMANIGLGQQRGARAEPPLFTGGDALEDLPLGSAEDPQYDADDVLNYLYQDVRPPRVSSPLRRPQPAD” here?
Answer: Its protein production is “failed”.

Question: Which protein production does the source give for “MKADDSRFFSFLKDRIGLDVTSVGEAIIERALRQRAKAANCADSDDYWHLLISSPQEQQALIEAVIVPETWFFRYPESFVTLGMLARERIASLAGVRPLRILSLPCSTGEEPYSIAMALFDAGVDARQFKVDAVDISPVSIAKAVHGIYGKNSFRGSDLSYRERFFSAITDGFEVADEIRACVNFQPGNLLDPKLASQVPYDIVFCRNLVIYFDRPTQQRVFQVLKQLTREDGLLFIGPAEGNLLAGIGMRSIGIAQSFAFRHAPAEAAAPAQVQAAAPIAPRPVVEAPARSPAPTPRPAARTSAAFAPLAKPAAAAGNSEVSALLDTIAGLANEGKSAEARAACERYLQQHEPVAQVFYWLGLLSEVEGAVVQAQGFYRKALYLQPQHRESLAQLAALLAAQGDSAGARRLQDRAARGANKQGNH” here?
Answer: The protein production was “failed”.

Question: Which protein production does the source give for “MKNAFLYFLLYYRMLTTYYEWFVIVCFPQIRKICCYNEDTKTNAMEAIMKKLIGIATAAVFGLGIFTSSANAETVVTTDVLNVRENPTTESKVVGKLLNGNKIDVQNTENGWSKITLDGKDAFVSAEFTKSIYYVTANVLNVRAEANTNSEILGTLKKDDMIETTNQVQNEWLQFEYNGKTAYVHVPFLTGTAPVIEKQEQPAPAKAQAPAQAPAAQAKQAAKPAVKAAETNTPSGGRELTVVATAYTAHPSENGGTYGGRVLTAMGHDLTANPNMKMIAVDPKVIPLGSKVWVEGYGEAIAGDTGGAIKGNRIDILLGSDSAAQKWGRKTVKVKILK” here?
Answer: Its protein production is “failed”.

Question: Which protein production does the source give for “MSFFLTTPAAIDLGVNIDHVATLRNARGTAYPDPVRAALAAEDAGADAITLHLREDRRHIVDADVRTLRPRVKTRMNLECAVTPEMLDIACEIRPHDACLVPEKRSELTTEGGLDVVGHFDAVRAACKQLADAGVRVSLFIDPDEAQIRAAHETGAPVIELHTGRYADAHDAAEQQREFERIATGVDAGIALGLKVNAGHGLHYTNVQAIAALPGIAELNIGHAIVAHAVFVGWDNAVREMKAIMVAARVAALHGGR” here?
Answer: Its protein production is “not failed”.

Question: For “MATVTKAPKKQIQFADDMQEFTKFPTKTGRRSLSRSISQSSTDSYSSAASYTDSSDDEVSPREKQQTNSKGSSNFCVKNIKQAEFGRREIEIAEQDMSALISLRKRAQGEKPLAGAKIVGCTHITAQTAVLIETLCALGAQCRWSACNIYSTQNEVAAALAEAGVAVFAWKGESEDDFWWCIDRCVNMDGWQANMILDDGGDLTHWVYKKYPNVFKKIRGIVEESVTGVHRLYQLSKAGKLCVPAMNVNDSVTKQKFDNLYCCRESILDGLKRTTDVMFGGKQVVVCGYGEVGKGCCAALKALGAIVYITEIDPICALQACMDGFRVVKLNEVIRQVDVVITCTGNKNVVTREHLDRMKNSCIVCNMGHSNTEIDVTSLRTPELTWERVRSQVDHVIWPDGKRVVLLAEGRLLNLSCSTVPTFVLSITATTQALALIELYNAPEGRYKQDVYLLPKKMDEYVASLHLPSFDAHLTELTDDQAKYLGLNKNGPFKPNYYRY”, which protein production is on record?
Answer: Its protein production is “failed”.

Question: With “TDINSLRTRLRSGEHAFADTLAFIADGYDYQPQPFRNGDVDNAAGQNEGSCKTLGLALLEGLSDEEALLAFGEHYRSVQATPEGSDHGNIRALIKHGLAGVTFEGEPLKRK” as the sequence, how does the protein production read?
Answer: The protein production was “not failed”.

Question: For “MNHHHHNHHGEAGFKRKVDYLDRPERSEVLAPEEFLQRIPMEKTASILDLGAGTGFLTIPAAKKVENTVFALDLDTKMLELIETKAKTAELANVKTLEASMDDIPLETSSVDVVLASLVLHEADSLADVLREVSRVVKTGGYFASLEFDTKGTDLKGPPMEIQISAEKLKEELAGFGFEVVQNWELDEGMYVSIAEKKE”, which protein production is on record?
Answer: Its protein production is “failed”.

Question: Which protein production does the source give for “MKLPHALSHWFPHKYAIDAKRLGDERTLAWSNLGYWADTSDYKTACRQLADGLADAVQLSSTDRLLDLGCGQGASLQHWVEHYQIQSLCAVELQLDHVKRIQHAFPQLEKMIQGSFLDLRPDTFKPHFDVVMCIDAAYHSALTSFLTAVGSVLKSKGRLGFHYLLLSEKWTQLPVWQRQKYKYLLKAADVELDDLADVTTTEHTLRAQGFDQIQIVDMTTDVFGGFARYMASRPYHSKQNIDERKIRATAKLCQYLCDQGIVRYVQIAATKQ” here?
Answer: Its protein production is “failed”.

Question: Which protein production does the source give for “MAQVPAGKNRSGQLSKQTGDAWENQARRWLEGQGLRFIAANARERGGEIDLIMRDGTVTVFIEVRYRRSARYGDAAASVTPQKQQRLLKAARLWLCRQ” here?
Answer: Its protein production is “failed”.

Question: For “MGSASSCRRIYIGTEANQYLAEQTLIYSIRKHLSDPSIEIIPLTQTQQRVGGTRFGFVRFTLPQAMGYQGKALYLDADQLALTDLAPIFDLLPDDKAIACVYEAEGLYNGKPHVQTWHTSVMLLDCEQLAWQPDELFATVVPNKQEPKPGQIRYRNFMELQWFEQERIAKLPPSWNHFNIVTPETNIVHFSHVRSQPWKNPRHELTDFWLGYLKEAIAAGYLRRRDVVAAVARGHVHPWTLKAIA”, which protein production is on record?
Answer: Its protein production is “failed”.

Question: Which protein production does the source give for “MTEQHSHQFERGTDGPKVILVGVDGSDSSLHAAAYAAGLARRQHALLAVVYVQPVMAAGAALGVPVADTTDEIAADLVQYIRDATERVKDIFEVRWEFHTFRGDPYNGLVTAADELKADAVVVGASEQAGHRIVGSVAVRLVKAGRWPVTVVP” here?
Answer: The protein production was “not failed”.

Question: With “MAKPGFRLALFATLLALIVVLLGAYTRLTHAGLGCPDWPGCYGFISVPKGEAQLAHAELHFPDTPVEAHKGWNEMIHRYFAGTLGLLIVLLAARAWTHRRHPGQPLKLPLFLLAVVFAQAAFGMWTVTLKLWPQVVTAHLLGGFATLSLLFLLTLRLSGVLPALIVPRRLQYWATAGLVLVIGQIALGGWVSSNYAAVACIDLPTCHGQWWPNMDFANGFHLTQHIGPNYLGGQLDSDARTAIHMTHRVGAVLVTLVLLGLAWQLRQTGMTRLAGLVLVALGAQVSLGLSNVFFHLPLPVAVAHNAGGAALLLTLVLVNYHARTSLVRARDRLPLGWRLSPRKQMAGPITIKGEMPWRL” as the sequence, how does the protein production read?
Answer: The protein production was “failed”.

Question: For “MLIRPTLEPDITWLPDVERSAAQAFVSWPALAWLAQGDVMDCAAHRAFVEAGGSWVAQDATGRIVGFACARLADQALHLHEISVRQEAQGQGVGRRLLQQVVDAGRCAGVRELTLTTFVDVPWNAPFYARFGFEMLQESRLCERLRGILASEHAHGLLGRCAMRLNVGL”, which protein production is on record?
Answer: Its protein production is “failed”.

Question: For “MFTMVQKLWLTVVCAVFVTVSFLYFVSLYSYEKLYVDNLKDSLVMEGKRLSAQYDKREGISIFEEKVRAFDQISSSDVLFVSNPRDLSACLPFDVHHHSLISEGDRQALLDGKTVTKIGYEEHFDRNIMGVVIPVLENKKLVGIVYSYIPLKSIKDLIYDMGLILAPLALAITLLTIWIGRKIIIAITKPLSQMERVANHLATGDFSERITISSEDEIGRLGKAFNKMANSLETEDVKRKEFLANVSHELRTPLSYIKGYSEAILDGVAKGPQQEKVTQLIHKEADRMQRLVHDLLDLAQLEGEHFPLKKQPIVFSQLIEDVLDTYEIKFIEKKIRISTNLNPEIIVMIDEDRMQQVLHNVLDNAIRYTNQNGDIIVTLRQIDDYCELNIKDTGIGIDTEHLENLGERFYRVDKARSRQHGGTGLGLAIVRQIVHIHDGQWRIESEKGNGTTVSIKLKVQDEESMF”, which protein production is on record?
Answer: The protein production was “failed”.

Question: For “VDICNHALLVGYGRVGSLLGEKLLASDIPLVVIETSRTRVDELRERGVRAVLGNAANEEIMQLAHLECAKWLILTIPNGYEAGEIVASARAKNPDIEIIARAHYDDEVAYITERGANQVVMGEREIARTMLELLETPPAGEVVTR”, which protein production is on record?
Answer: Its protein production is “not failed”.

Question: Which protein production does the source give for “MGHVSNSPFSVDVLVVGGGPAGSAAAIHAAKAGYSVLLIDAQPFPRDKTCGDGLTPRAVHQLEALGVDVTSRYRSFGLKLHGFGGSVTVPWPESHFGQVSSAMPRMKFDAMLWEMAAQHATTWTATASEVEIDSAIRSVTMSDGRVVKPRSVIVADGVRSTFGKLLGRTWHRGEVYGIAARSYCTTPRSTEPWMHSHLELRDDSTTLPGYGWIFPIGDGTANVGCGALSTDKRPAKINTKKLLRHYASQQTDWEFGTPQRVASALLPMGGAVSTIAGPNWMLIGDAAACVNPLNGEGIDYGLETAALAVAHLDNPLEWPHILRETYGEAFLLARTAARLLTYPQFLPLTGPIALRTPLMASAARLMGNLVTEEDKDIVARAWRAAGWGVTKIRGGSPLWDLEHHHHHH” here?
Answer: Its protein production is “failed”.

Question: For “MSVLSALQYYFFYPSFFLTVIFPGLIFTLIFLLVTIWFERKAAAIVQLRYGPYYASKRLGGILQLFADAIKFVFSEIIIPNGVNQTLYAISPVLVLIFAFLPMALIPISTIPTQGSILSVYHGIFYDTQIHQGILVPYFIEYNLIGIIALESLYPILVIFLAWNTNNRFAIVGSIREAYLSVSYDVLIIISTLALGLEYHTLDVAKIVTSGIPGFIANPIAAFVFLVAMLIGSSRFPFEIVEAETELVIGPYTEYSGFLFVLTMAGSYVANLVYAILFVDLFLGGWLPFTGFVGAIFTVFKAAIVVFFAVFLRAVYGRYRIDQALRGSWKYFFPLALASLLLGVVVGYLWIR”, which protein production is on record?
Answer: The protein production was “failed”.
